The text below walks through data of US20150344570A1 (published 2015).

Experiment [1] deals with T1, FcγRIa extracellular domain with C-terminal His tag (human, UniProt P12314 16-292).
T1 construct: extracellular domain; Expressed in FreeStyle293 cells; analyte in the SPR assay; also called FcgRI; 1a
Description: SPR (Biacore), relative binding, HeCon Ab = 100. (In general: In SPR one partner is held on a chip, and binding of the other changes the refractive index at the surface.)

Experiment [2] has as its target T2, FcγRIIb extracellular domain with C-terminal His tag (human, UniProt P31994 43-217).
T2 construct: extracellular domain; Expressed in FreeStyle293 cells; analyte in the SPR assay; also called FcgRIIb; 2b
T2 sequence (looked up): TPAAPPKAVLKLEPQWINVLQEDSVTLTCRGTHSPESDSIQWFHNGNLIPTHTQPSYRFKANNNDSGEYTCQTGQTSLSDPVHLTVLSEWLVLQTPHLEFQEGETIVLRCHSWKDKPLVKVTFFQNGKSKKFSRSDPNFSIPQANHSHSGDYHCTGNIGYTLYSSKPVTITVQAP
Briefly: SPR (Biacore), relative binding, HeCon Ab = 100.

Experiment [3] addresses T3, FcγRIIa R (FcγRIIa allotype with Arg at position 131), extracellular domain with C-terminal His tag (human, UniProt P12318 34-217).
T3 construct: extracellular domain; made in FreeStyle293 cells; analyte in the Biacore assay; also called FcγRIIa type R; 2aR
T3 sequence (looked up): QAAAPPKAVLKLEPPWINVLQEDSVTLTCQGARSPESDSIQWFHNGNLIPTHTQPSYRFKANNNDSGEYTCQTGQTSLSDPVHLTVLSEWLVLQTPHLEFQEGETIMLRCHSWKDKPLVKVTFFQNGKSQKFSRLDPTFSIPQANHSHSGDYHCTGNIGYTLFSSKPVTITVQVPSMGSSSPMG
Description: SPR (Biacore), antibody captured, FcγR analyte; vs GpH7-A5/GpH7-B3/GpL16-k0 = 100. The protocol:
(§1) The heterodimerized antibodies He Abs in which one of the H chains was introduced with an alteration were assayed for their binding activities to each activating FcγR and inhibitory FcγR according to the method described in Example 4. […] The activating FcγRs in FIGS. 26, 27, 28, and 29 are FcγRIa, FcγRIIa (R), FcγRIIa (H), and FcγRIIIa, respectively.
(§2) Analysis of interaction between objective antibody and the FcγR was carried out using Biacore T100 (GE Healthcare). HBS-EP+ (GE Healthcare) was used as the running buffer, and the measurement temperature was set to 25° C. Chips produced by immobilizing the antigen peptide by the amine coupling method to a Series S Sencor Chip CM5 (GE Healthcare), or alternatively, chips produced by allowing preliminarily biotinylated antigen peptides to interact with and immobilize onto a Series S Sensor Chip SA (certified) (GE Healthcare) were used. Antibodies of interest were captured onto an antigen peptide-immobilized chip, and allowed to interact to each FcγR diluted with running buffer. To regenerate and repeatedly use the chip, the antibodies captured on the chip were washed off by reacting 10 mM glycine-HCl, pH 1.5.

Experiment [4] concerns the target T4, FcγRIIb, extracellular domain with C-terminal His tag (human, UniProt P31994 43-217).
T4 construct: extracellular domain; made in FreeStyle293 cells; analyte in the Biacore assay; also called 2b; FcgRIIb
T4 sequence (looked up): T2 sequence (looked up)
The description is as above. The protocol:
as §1, §2

T1 sequence (P12314 16-292): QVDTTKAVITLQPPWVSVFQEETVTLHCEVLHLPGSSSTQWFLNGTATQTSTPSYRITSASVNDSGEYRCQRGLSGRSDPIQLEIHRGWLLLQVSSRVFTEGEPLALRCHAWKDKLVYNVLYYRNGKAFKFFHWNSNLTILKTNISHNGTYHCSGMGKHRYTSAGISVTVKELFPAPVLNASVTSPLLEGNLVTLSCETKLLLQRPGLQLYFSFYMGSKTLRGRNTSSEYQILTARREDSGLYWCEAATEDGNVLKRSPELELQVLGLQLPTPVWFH

B1: GpH7-A5/GpH7-B3 variant H268_12R/GpL16-k0 (He Ab) (antibody, human IgG1, kappa)
heavy 1: not shown
heavy 2: not shown
light: DIVMTQSPLSLPVTPGEPASISCQASESLVHSNRNTYLHWYLQKPGQSPQLLIYKVSNRFSGVPDRFSGSGSGTDFTLKISRVEAEDVGVYYCSQNTHVPPTFGQGTKVEIERTVAAPSVFIFPPSDEQLKSGTASVVCLLNNFYPREAKVQWKVDNALQSGNSQESVTEQDSKDSTYSLSSTLTLSKADYEKHKVYACEVTHQGLSSPVTKSFNRGEC
notes: He Ab: mutation in one H chain only
On to B1, for which the He/Con_1a in experiment [1] was 106 % of HeCon Ab (=100). The He/Con_2b in experiment [2] is 89.8 % of HeCon Ab (=100).

B2: GpH7-A5/GpH7-B3 variant Q295_06M/GpL16-k0 (He Ab) (antibody, human IgG1, kappa)
heavy 1: not shown
heavy 2: not shown
light: B1 light
notes: as for B1
For B2, the He/Con_1a in experiment [1] is 104 % of HeCon Ab (=100). Also, the He/Con_2b in experiment [2] was 90.4 % of HeCon Ab (=100).

B3: GpH7-A5/GpH7-B3 variant E333_04F/GpL16-k0 (antibody, human IgG1, kappa)
heavy 1: not shown
heavy 2: not shown
light: B1 light
notes: heterodimerized IgG1, mutation in one H chain only; also called He Ab
As for B3, the He/Con_2aR in experiment [3] was 102 relative (HeCon Ab = 100). In experiment [4], the He/Con_2b is 94.6 relative (HeCon Ab = 100).

B4: GpH7-A5/GpH7-B3 variant E333_05P/GpL16-k0 (antibody, human IgG1, kappa)
heavy 1: not shown
heavy 2: not shown
light: B1 light
notes: as for B3
As to B4, the He/Con_2aR in experiment [3] was 105 relative (HeCon Ab = 100). For the same molecule, the He/Con_2b in experiment [4] was 97.7 relative (HeCon Ab = 100).

B5: GpH7-A5/GpH7-B3 variant P271_18N/GpL16-k0 (He Ab) (antibody, human IgG1, kappa)
heavy 1: not shown
heavy 2: not shown
light: B1 light
notes: as for B1
Take B5: the He/Con_1a in experiment [1] was 103 % of HeCon Ab (=100). For the same molecule, in experiment [2], the He/Con_2b was 93.3 % of HeCon Ab (=100).

B6: GpH7-A5/GpH7-B3 variant A330_15Y/GpL16-k0 (antibody, human IgG1, kappa)
heavy 1: not shown
heavy 2: not shown
light: B1 light
notes: as for B3
Take B6: the He/Con_2aR in experiment [3] is 102 relative (HeCon Ab = 100). In experiment [4], the He/Con_2b is 95 relative (HeCon Ab = 100).

B7: GpH7-A5/GpH7-B3 variant P271_14T/GpL16-k0 (He Ab) (antibody, human IgG1, kappa)
heavy 1: not shown
heavy 2: not shown
light: B1 light
notes: as for B1
In the case of B7, the He/Con_1a in experiment [1] is 102 % of HeCon Ab (=100). Besides, the He/Con_2b in experiment [2] is 95.4 % of HeCon Ab (=100).

B8: GpH7-A5/GpH7-B3 variant P271_13S/GpL16-k0 (He Ab) (antibody, human IgG1, kappa)
heavy 1: not shown
heavy 2: not shown
light: B1 light
notes: as for B1
Take B8: the He/Con_1a in experiment [1] is 102 % of HeCon Ab (=100). For the same molecule, the He/Con_2b in experiment [2] was 87.6 % of HeCon Ab (=100).

B9: GpH7-A5/GpH7-B3 variant S239_19Q/GpL16-k0 (He Ab) (antibody, human IgG1, kappa)
heavy 1: not shown
heavy 2: not shown
light: B1 light
notes: as for B1
On to B9, for which the He/Con_1a in experiment [1] was 101 % of HeCon Ab (=100). Besides, in experiment [2], the He/Con_2b is 86.1 % of HeCon Ab (=100).

B10: GpH7-A5/GpH7-B3 variant P271_19Q/GpL16-k0 (He Ab) (antibody, human IgG1, kappa)
heavy 1: not shown
heavy 2: not shown
light: B1 light
notes: as for B1
For the molecule B10, in experiment [1], the He/Con_1a is 103 % of HeCon Ab (=100). The He/Con_2b in experiment [2] is 88.6 % of HeCon Ab (=100).

B11: GpH7-A5/GpH7-B3 variant Q295_04F/GpL16-k0 (He Ab) (antibody, human IgG1, kappa)
heavy 1: not shown
heavy 2: not shown
light: B1 light
notes: as for B1
On to B11, for which, in experiment [1], the He/Con_1a is 102 % of HeCon Ab (=100). Further, the He/Con_2b in experiment [2] was 64.7 % of HeCon Ab (=100).

B12: GpH7-A5/GpH7-B3 variant L234_04F/GpL16-k0 (He Ab) (antibody, human IgG1, kappa)
heavy 1: not shown
heavy 2: not shown
light: B1 light
notes: as for B1
For the molecule B12, the He/Con_1a in experiment [1] is 101 % of HeCon Ab (=100). Moreover, the He/Con_2b in experiment [2] was 99.8 % of HeCon Ab (=100).

B13: GpH7-A5/GpH7-B3 variant A330_19Q/GpL16-k0 (antibody, human IgG1, kappa)
heavy 1: not shown
heavy 2: not shown
light: B1 light
notes: as for B3
With B13, the He/Con_2aR in experiment [3] is 104 relative (HeCon Ab = 100). Further, the He/Con_2b in experiment [4] was 90.8 relative (HeCon Ab = 100).

B14: GpH7-A5/GpH7-B3 variant P271_11K/GpL16-k0 (He Ab) (antibody, human IgG1, kappa)
heavy 1: not shown
heavy 2: not shown
light: B1 light
notes: as for B1
Turning to B14, in experiment [1], the He/Con_1a was 103 % of HeCon Ab (=100). Further, the He/Con_2b in experiment [2] was 90.2 % of HeCon Ab (=100).

B15: GpH7-A5/GpH7-B3 variant P271_12R/GpL16-k0 (He Ab) (antibody, human IgG1, kappa)
heavy 1: not shown
heavy 2: not shown
light: B1 light
notes: as for B1
B15: the He/Con_1a in experiment [1] is 102 % of HeCon Ab (=100). In addition, the He/Con_2b in experiment [2] was 86.5 % of HeCon Ab (=100).

B16: GpH7-A5/GpH7-B3 variant P271_04F/GpL16-k0 (He Ab) (antibody, human IgG1, kappa)
heavy 1: not shown
heavy 2: not shown
light: B1 light
notes: as for B1
Take B16: the He/Con_1a in experiment [1] was 102 % of HeCon Ab (=100). In addition, the He/Con_2b in experiment [2] was 59.5 % of HeCon Ab (=100).

B17: GpH7-A5/GpH7-B3 variant P271_07I/GpL16-k0 (He Ab) (antibody, human IgG1, kappa)
heavy 1: not shown
heavy 2: not shown
light: B1 light
notes: as for B1
B17: the He/Con_1a in experiment [1] was 102 % of HeCon Ab (=100). For the same molecule, the He/Con_2b in experiment [2] was 76.8 % of HeCon Ab (=100).

B18: GpH7-A5/GpH7-B3 variant S267_18N/GpL16-k0 (He Ab) (antibody, human IgG1, kappa)
heavy 1: not shown
heavy 2: not shown
light: B1 light
notes: as for B1
B18: the He/Con_1a in experiment [1] is 102 % of HeCon Ab (=100). The He/Con_2b in experiment [2] was 47.7 % of HeCon Ab (=100).
